Results as given in PMC9181642.

target: insulin receptor (mouse (endogenous in 3T3-L1)); test: co-IP; lysates of differentiated, serum-deprived 3T3-L1 adipocytes, untreated or treated with 100 nM Ang II for 60 min (for PKCβII also 10 µM DuP 753 for 30 min before Ang II); lysis in 50 mM Tris-HCl, 150 mM NaCl, 1% Nonidet P-40, 10% glycerol, 2 mM EDTA, pH 7.4; IR precipitated with anti-IR-β polyclonal antibody and protein A/G PLUS-Agarose; blots probed with anti-PKCα, -βI, -βII or -δ and quantified by densitometry
Sequence (P15208 28-1372): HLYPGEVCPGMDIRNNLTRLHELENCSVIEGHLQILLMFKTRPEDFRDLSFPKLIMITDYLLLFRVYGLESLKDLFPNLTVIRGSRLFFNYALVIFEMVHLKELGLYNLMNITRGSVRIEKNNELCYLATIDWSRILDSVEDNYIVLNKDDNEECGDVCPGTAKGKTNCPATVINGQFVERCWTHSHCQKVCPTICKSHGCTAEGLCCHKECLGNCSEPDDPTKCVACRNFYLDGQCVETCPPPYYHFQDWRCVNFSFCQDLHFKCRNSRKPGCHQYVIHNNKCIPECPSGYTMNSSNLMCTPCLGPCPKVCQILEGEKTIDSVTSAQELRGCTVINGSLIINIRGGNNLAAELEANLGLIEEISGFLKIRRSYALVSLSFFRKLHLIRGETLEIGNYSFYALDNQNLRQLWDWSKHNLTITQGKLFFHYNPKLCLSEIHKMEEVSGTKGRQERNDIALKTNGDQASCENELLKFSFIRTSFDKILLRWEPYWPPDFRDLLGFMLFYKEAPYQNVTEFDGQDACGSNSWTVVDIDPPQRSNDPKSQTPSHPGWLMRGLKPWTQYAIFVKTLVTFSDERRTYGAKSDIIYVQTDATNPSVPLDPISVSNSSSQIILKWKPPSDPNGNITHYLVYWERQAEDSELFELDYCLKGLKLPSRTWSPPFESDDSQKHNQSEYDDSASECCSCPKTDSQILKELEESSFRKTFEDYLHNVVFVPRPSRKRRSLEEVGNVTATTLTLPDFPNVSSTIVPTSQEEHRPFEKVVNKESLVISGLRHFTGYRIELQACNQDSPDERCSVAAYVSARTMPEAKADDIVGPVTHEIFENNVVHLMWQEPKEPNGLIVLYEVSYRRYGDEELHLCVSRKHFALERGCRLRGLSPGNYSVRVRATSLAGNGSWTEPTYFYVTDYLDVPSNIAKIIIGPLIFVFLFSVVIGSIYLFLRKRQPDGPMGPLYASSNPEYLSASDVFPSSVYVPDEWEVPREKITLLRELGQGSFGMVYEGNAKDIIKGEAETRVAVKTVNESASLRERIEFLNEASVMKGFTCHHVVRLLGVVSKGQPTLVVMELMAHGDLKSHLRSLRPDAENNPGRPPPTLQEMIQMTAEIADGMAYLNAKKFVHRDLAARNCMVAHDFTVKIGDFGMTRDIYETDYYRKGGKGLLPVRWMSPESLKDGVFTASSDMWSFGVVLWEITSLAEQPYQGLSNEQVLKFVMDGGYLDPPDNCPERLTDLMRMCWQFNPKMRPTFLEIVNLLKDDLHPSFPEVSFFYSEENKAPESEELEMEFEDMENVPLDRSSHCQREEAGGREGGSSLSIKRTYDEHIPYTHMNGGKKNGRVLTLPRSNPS

fold increase of the association with Ang II over control cells [fold] | Substance
2 | PKCα (from UniProt P20444 1-672) (enzyme)
1.2 | PKCβI (from UniProt P68404 1-671) (enzyme)
4 | PKCβII (from UniProt P68404-2 1-673) (enzyme)
1.5 | PKCδ (from UniProt P28867 1-674) (enzyme)
